Measurements from the supplement of paper PMC9112550, “Optimization of the antimicrobial peptide Bac7 by deep mutational scanning” (BMC Biology, 2022).

Tested on: Escherichia coli TOP10
Experiment: shrunken log2 fold change of peptide-encoding DNA abundance (4.5 h post-induction vs induction); higher = less antimicrobial activity (less host growth inhibition)
Conditions: time post-induction: 4.5 h; library: site-saturation at positions 5, 18, 19, 20
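Further: peptides expressed intracellularly from a pBAD plasmid library in pooled LB shake-flask culture, induced with 0.3% L-arabinose, DNA abundance read by NGS, three biological replicates, DESeq2 with apeglm shrinkage.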

Sequence | shrunken log2 fold change
RRIRKRPPRLPRPRPRPGDEPRP | 0.128
RRIRKRPPRLPRPRPRPGFGPRP | 1.35
RRIRKRPPRLPRPRPRPGFQPRP | 0.138
RRIRKRPPRLPRPRPRPGGDPRP | 0.16
RRIRKRPPRLPRPRPRPGGPPRP | 0.453
RRIRKRPPRLPRPRPRPGGTPRP | 0.504
RRIRKRPPRLPRPRPRPGHMPRP | 0.177
RRIRKRPPRLPRPRPRPGICPRP | 0.0428
RRIRKRPPRLPRPRPRPGKTPRP | -0.0179
RRIRKRPPRLPRPRPRPGKVPRP | 0.248
RRIRKRPPRLPRPRPRPGMAPRP | 0.315
RRIRKRPPRLPRPRPRPGMDPRP | 0.195
RRIRKRPPRLPRPRPRPGMYPRP | 0.102
RRIRKRPPRLPRPRPRPGRDPRP | 0.688
RRIRKRPPRLPRPRPRPGRTPRP | 0.223
RRIRKRPPRLPRPRPRPGTVPRP | 0.0317
RRIRKRPPRLPRPRPRPGWAPRP | 1.04
RRIRKRPPRLPRPRPRPGWHPRP | 0.133
RRIRKRPPRLPRPRPRPHAVPRP | 0.132
RRIRKRPPRLPRPRPRPHCEPRP | 0.177
RRIRKRPPRLPRPRPRPHDAPRP | 0.437
RRIRKRPPRLPRPRPRPHDYPRP | 0.0206
RRIRKRPPRLPRPRPRPHGSPRP | -0.0695
RRIRKRPPRLPRPRPRPHHKPRP | -0.176
RRIRKRPPRLPRPRPRPHIMPRP | -0.0414

Sequence | shrunken log2 fold change
RRIRKRPPRLPRPRPRPHKKPRP | -0.127
RRIRKRPPRLPRPRPRPHMPPRP | -0.175
RRIRKRPPRLPRPRPRPHMQPRP | -0.0772
RRIRKRPPRLPRPRPRPHNIPRP | -0.1
RRIRKRPPRLPRPRPRPHNQPRP | 0.0277
RRIRKRPPRLPRPRPRPHPGPRP | 0.293
RRIRKRPPRLPRPRPRPHPKPRP | 0.386
RRIRKRPPRLPRPRPRPHQKPRP | -0.0675
RRIRKRPPRLPRPRPRPHQRPRP | -0.0795
RRIRKRPPRLPRPRPRPHRAPRP | 0.515
RRIRKRPPRLPRPRPRPHSFPRP | -0.0644
RRIRKRPPRLPRPRPRPHSVPRP | 0.11
RRIRKRPPRLPRPRPRPHTCPRP | 0.00412
RRIRKRPPRLPRPRPRPHVVPRP | -0.183
RRIRKRPPRLPRPRPRPHYWPRP | -0.047
RRIRKRPPRLPRPRPRPIAKPRP | 0.141
RRIRKRPPRLPRPRPRPIALPRP | 0.0143
RRIRKRPPRLPRPRPRPIEEPRP | 0.566
RRIRKRPPRLPRPRPRPIFGPRP | 2.55
RRIRKRPPRLPRPRPRPIGKPRP | 0.0962
RRIRKRPPRLPRPRPRPIGRPRP | 0.015
RRIRKRPPRLPRPRPRPIHQPRP | -0.0102
RRIRKRPPRLPRPRPRPIKLPRP | -0.243
RRIRKRPPRLPRPRPRPIKNPRP | -0.188
RRIRKRPPRLPRPRPRPIKRPRP | 0.0734

Sequence | shrunken log2 fold change
RRIRKRPPRLPRPRPRPILNPRP | -0.158
RRIRKRPPRLPRPRPRPIMHPRP | -0.204
RRIRKRPPRLPRPRPRPIMVPRP | 0.248
RRIRKRPPRLPRPRPRPIPGPRP | -0.0379
RRIRKRPPRLPRPRPRPIPNPRP | 0.159
RRIRKRPPRLPRPRPRPIRTPRP | 0.416
RRIRKRPPRLPRPRPRPITMPRP | -0.122
RRIRKRPPRLPRPRPRPIVDPRP | 0.234
RRIRKRPPRLPRPRPRPIVKPRP | -0.158
RRIRKRPPRLPRPRPRPIWPPRP | 0.345
RRIRKRPPRLPRPRPRPIYKPRP | -0.0701
RRIRKRPPRLPRPRPRPKAAPRP | 0.142
RRIRKRPPRLPRPRPRPKADPRP | 0.018
RRIRKRPPRLPRPRPRPKAEPRP | 0.669
RRIRKRPPRLPRPRPRPKDKPRP | 0.388
RRIRKRPPRLPRPRPRPKDLPRP | 0.0142
RRIRKRPPRLPRPRPRPKDVPRP | -0.018
RRIRKRPPRLPRPRPRPKGAPRP | 0.217
RRIRKRPPRLPRPRPRPKGGPRP | 4.1
RRIRKRPPRLPRPRPRPKGMPRP | -0.00227
RRIRKRPPRLPRPRPRPKHHPRP | 0.122
RRIRKRPPRLPRPRPRPKKCPRP | 0.405
RRIRKRPPRLPRPRPRPKKGPRP | 0.368
RRIRKRPPRLPRPRPRPKKLPRP | 0.16
RRIRKRPPRLPRPRPRPKKPPRP | 0.0909

Sequence | shrunken log2 fold change
RRIRKRPPRLPRPRPRPKKYPRP | -0.149
RRIRKRPPRLPRPRPRPKLDPRP | 0.707
RRIRKRPPRLPRPRPRPKMYPRP | -0.0411
RRIRKRPPRLPRPRPRPKNMPRP | -0.129
RRIRKRPPRLPRPRPRPKNQPRP | 0.419
RRIRKRPPRLPRPRPRPKPMPRP | 0.515
RRIRKRPPRLPRPRPRPKQFPRP | -0.123
RRIRKRPPRLPRPRPRPKRKPRP | 0.89
RRIRKRPPRLPRPRPRPKTVPRP | 0.355
RRIRKRPPRLPRPRPRPKVDPRP | 0.00437
RRIRKRPPRLPRPRPRPKWDPRP | 0.361
RRIRKRPPRLPRPRPRPKWQPRP | 0.0343
RRIRKRPPRLPRPRPRPKYHPRP | -0.204
RRIRKRPPRLPRPRPRPLADPRP | 0.559
RRIRKRPPRLPRPRPRPLAEPRP | 1.11
RRIRKRPPRLPRPRPRPLCIPRP | -0.0466
RRIRKRPPRLPRPRPRPLCKPRP | 0.0465
RRIRKRPPRLPRPRPRPLCSPRP | 0.0457
RRIRKRPPRLPRPRPRPLCVPRP | 0.247
RRIRKRPPRLPRPRPRPLEGPRP | 0.162
RRIRKRPPRLPRPRPRPLELPRP | 0.134
RRIRKRPPRLPRPRPRPLGCPRP | 0.659
RRIRKRPPRLPRPRPRPLICPRP | 0.123
RRIRKRPPRLPRPRPRPLKCPRP | -0.072
RRIRKRPPRLPRPRPRPLKLPRP | 0.0766

Sequence | shrunken log2 fold change
RRIRKRPPRLPRPRPRPLLRPRP | 0.477
RRIRKRPPRLPRPRPRPLLTPRP | 0.652
RRIRKRPPRLPRPRPRPLNCPRP | -0.0221
RRIRKRPPRLPRPRPRPLNMPRP | 0.0134
RRIRKRPPRLPRPRPRPLPCPRP | 0.213
RRIRKRPPRLPRPRPRPLQDPRP | 0.485
RRIRKRPPRLPRPRPRPLRIPRP | 0.648
RRIRKRPPRLPRPRPRPLSIPRP | -0.0931
RRIRKRPPRLPRPRPRPLVIPRP | -0.0927
RRIRKRPPRLPRPRPRPLYFPRP | -0.271
RRIRKRPPRLPRPRPRPLYQPRP | -0.187
RRIRKRPPRLPRPRPRPMCFPRP | 0.265
RRIRKRPPRLPRPRPRPMCNPRP | 0.26
RRIRKRPPRLPRPRPRPMCWPRP | 0.0564
RRIRKRPPRLPRPRPRPMDVPRP | 0.0608
RRIRKRPPRLPRPRPRPMEYPRP | -0.00192
RRIRKRPPRLPRPRPRPMGAPRP | 0.414
RRIRKRPPRLPRPRPRPMGHPRP | 0.000751
RRIRKRPPRLPRPRPRPMGKPRP | -0.0982
RRIRKRPPRLPRPRPRPMHRPRP | 0.0595
RRIRKRPPRLPRPRPRPMHSPRP | -0.0199
RRIRKRPPRLPRPRPRPMIKPRP | -0.0199
RRIRKRPPRLPRPRPRPMINPRP | 0.148
RRIRKRPPRLPRPRPRPMIPPRP | 0.0969
RRIRKRPPRLPRPRPRPMLCPRP | -0.0829

Sequence | shrunken log2 fold change
RRIRKRPPRLPRPRPRPMLRPRP | 0.308
RRIRKRPPRLPRPRPRPMMMPRP | 0.619
RRIRKRPPRLPRPRPRPMMWPRP | 0.373
RRIRKRPPRLPRPRPRPMNFPRP | 0.18
RRIRKRPPRLPRPRPRPMPAPRP | 0.15
RRIRKRPPRLPRPRPRPMQCPRP | -0.0161
RRIRKRPPRLPRPRPRPMQHPRP | 0.589
RRIRKRPPRLPRPRPRPMQMPRP | -0.00145
RRIRKRPPRLPRPRPRPMQTPRP | 0.753
RRIRKRPPRLPRPRPRPMQWPRP | 0.263
RRIRKRPPRLPRPRPRPMRGPRP | 0.874
RRIRKRPPRLPRPRPRPMRMPRP | 1.84
RRIRKRPPRLPRPRPRPMRPPRP | 1.22
RRIRKRPPRLPRPRPRPMVPPRP | -0.043
RRIRKRPPRLPRPRPRPMWPPRP | -0.00167
RRIRKRPPRLPRPRPRPMWVPRP | -0.232
RRIRKRPPRLPRPRPRPNAFPRP | 0.0186
RRIRKRPPRLPRPRPRPNAHPRP | 0.208
RRIRKRPPRLPRPRPRPNALPRP | 0.301
RRIRKRPPRLPRPRPRPNDVPRP | 0.117
RRIRKRPPRLPRPRPRPNGAPRP | 0.168
RRIRKRPPRLPRPRPRPNGHPRP | -0.0369
RRIRKRPPRLPRPRPRPNGLPRP | -0.0579
RRIRKRPPRLPRPRPRPNHAPRP | -0.022
RRIRKRPPRLPRPRPRPNICPRP | -0.0826
